Measured values from US20220306756A1 (WAKE FOREST UNIVERSITY HEALTH SCIENCES, published 2022).

Legend:
Assay in all cases: RIA, competition with 125I-Ang-(1-12)
[1] = target: T1, Angiotensin-(1-7)
T1 construct: also called Ang-(1-7)
T1 peptide: DRVYIHP
Description: (§1) h-Ang-(1-12) Specificity and Cross-reactivity Assays: For specificity, a synthetic non-radiolabeled h-Ang-(1-12) standard (purity≥98%) was used. Briefly, 200 μL of the RIA buffer (50 mM PBS, 25 mM EDTA, 0.5% triton X-100, 0.05% sodium azide and 0.5% BSA, pH 7.4) containing 50 μL of mAb (1:2,000 dilution of IgG concentration 1.3 mg/mL), 50 μL of 125I-Ang-(1-12) [6-8 fmoles/tube, purity>99%] and 50 μL of different concentrations of non-radiolabeled human Ang-(1-12) peptide (0 to 10,000 fmol/0.2 mL RIA tube) were combined and the RIA tubes were incubated overnight for 20-22 hours at 4° C. At the end of incubation period, 50 μL of 1% γ-globulin were added, mixed, and the bound/free (B/Bo) forms of h-Ang-(1-12) were then separated by precipitating the bound (B) fraction with 200 μL of 23% polyethylene glycol (PEG). The bound and unbound (Bo) traces were separated by centrifuging the tubes at 3,000 rpm for 30 min at 4° C. The radioactivity corresponding to the antibody-bound antigen in the precipitate were measured in a PerkinElmer Wizard2 Gamma Counter. The binding data were analyzed and graphed using a statistical program (GraphPad Prism 8). To examine the cross-reactivity of the mAb with human and rat AGT or AGT-derived angiotensin peptides, several fold higher concentrations (AGT up to 10,000 fmol and angiotensin peptides up to 5,000 fmol) were used. Briefly, in a total of 200 μL of RIA buffer we added 50 μL of h-Ang-(1-12) mAb (1:2,000 dilution), 50 μL of ¹²⁵I-Ang-(1-12) and 50 μL of non-radiolabeled angiotensin peptides [Ang I, ([…]; SEQ ID NO:20); Ang-(1-9), ([…]; SEQ ID NO:23); Ang II, ([…]; SEQ ID NO:21); Ang-(1-7), (DRVYIHP; SEQ ID NO:22) and rat Ang-(1-12), ([…]; SEQ ID NO:24)] or purified AGT protein (10,000 fmol per RIA tube) and after mixing the contents, the RIA tubes were incubated overnight (20-22 hours at 4° C.) and processed as described above.

[2] = target: Ang-(1-9)
Description: as §1

[3] = target: T2, purified rat angiotensinogen (AGT) protein (rat, UniProt P01015 25-477)
T2 construct: also called rat AGT
T2 sequence (looked up): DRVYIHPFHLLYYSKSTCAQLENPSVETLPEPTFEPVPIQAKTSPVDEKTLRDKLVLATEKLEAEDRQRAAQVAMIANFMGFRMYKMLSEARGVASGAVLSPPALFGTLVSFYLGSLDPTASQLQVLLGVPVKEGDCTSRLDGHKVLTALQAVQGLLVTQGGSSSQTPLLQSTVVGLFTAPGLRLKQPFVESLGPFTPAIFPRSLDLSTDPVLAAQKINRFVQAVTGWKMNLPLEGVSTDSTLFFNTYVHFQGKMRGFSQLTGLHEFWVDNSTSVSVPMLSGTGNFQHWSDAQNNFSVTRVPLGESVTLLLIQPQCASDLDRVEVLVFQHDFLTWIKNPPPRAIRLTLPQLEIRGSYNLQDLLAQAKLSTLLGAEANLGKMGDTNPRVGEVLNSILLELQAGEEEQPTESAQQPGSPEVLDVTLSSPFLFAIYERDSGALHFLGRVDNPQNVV
Description: as §1

[4] = target: T3, purified human angiotensinogen (AGT) protein (human, UniProt P01019 25-476)
T3 construct: also called human AGT
T3 sequence (looked up): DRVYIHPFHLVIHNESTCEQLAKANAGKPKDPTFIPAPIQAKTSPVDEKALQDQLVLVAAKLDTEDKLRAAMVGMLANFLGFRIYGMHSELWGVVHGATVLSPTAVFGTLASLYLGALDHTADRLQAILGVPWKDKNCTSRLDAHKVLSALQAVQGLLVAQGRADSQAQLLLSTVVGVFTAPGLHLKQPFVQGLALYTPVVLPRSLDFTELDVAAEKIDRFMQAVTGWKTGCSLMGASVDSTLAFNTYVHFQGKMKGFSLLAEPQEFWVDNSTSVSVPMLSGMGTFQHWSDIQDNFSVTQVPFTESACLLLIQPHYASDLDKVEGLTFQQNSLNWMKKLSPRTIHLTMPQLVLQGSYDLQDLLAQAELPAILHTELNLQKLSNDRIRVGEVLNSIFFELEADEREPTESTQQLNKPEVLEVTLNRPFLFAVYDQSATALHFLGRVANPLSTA
Description: as §1

B1: h-Ang-(1-12) monoclonal antibody, Clone# 14B3 (Protein L purified mAb IgG) (antibody, V domains shown)
VH: DVQLQESGPGLVKPSQSLSLTCTVNGYSITSDFAWNWIRQFPGNKLEWMGYISYSGNTYYNPSLKSRISITRDTSKNQFFLQLNSVTTEDTATYYCARGSYYFDYWGQGTTLTVSS
VL: DIVMSQSPSSLAVSAGEKVTMSCKSSQSLLNSRTRKNYLAWYQQKPGQSPKLLIYWASTRESGVPDRFTGSGSGTDFTLTISSVQAEDLAVYYCKQSYNLRTFGGGTKLEIK
notes: also called Ang-(1-12)-mAb; h-Ang-(1-12) mAb
- binding result [1]: no binding (tested: angiotensin peptides up to 5,000 fmol)
- binding result [2]: no binding (tested: angiotensin peptides up to 5,000 fmol)
- binding result [3]: no binding (tested: AGT up to 10,000 fmol)
- binding result [4]: no binding (tested: AGT up to 10,000 fmol)
